Measurements published in patent publication US20090192084A1.
One block for each substance: values may come before it.

Legend:
[1] = molecular target: BTB/POZ domain-containing protein 2. BTBD2 (human) (UniProt Q9BX70); assay: Flag co-IP, MudPIT MS, DMSO
Cullin 1 (human) = Cullin 1 (human) (UniProt Q13616); assay: Flag co-IP, MudPIT MS, DMSO
[2] = molecular target: Kelch repeat and BTB domain-containing protein 7, KBTB7 (human) (UniProt Q8WVZ9); assay: Flag co-IP, MudPIT MS, DMSO
[3] = molecular target: RING finger protein 12. RLIM (human) (UniProt Q9NVW2); assay: Flag co-IP, MudPIT MS, DMSO
[4] = molecular target: Ubiquitin conjugation factor E4 B, UBE4B (Ufd2ortholog) (human) (UniProt O95155); assay: Flag co-IP, MudPIT MS, DMSO
[5] = molecular target: E3 ubiquitin-protein ligase1-HUWE1 (human) (UniProt Q7Z6Z7); assay: Flag co-IP, MudPIT MS, MG132
[6] = molecular target: E6AP ubiquitin-protein ligase, UBE3A (human) (UniProt Q05086); assay: Flag co-IP, MudPIT MS, MG132
Praja 2 (human) = Praja 2 (human) (UniProt O43164); assay: Flag co-IP, MudPIT MS, MG132
UBR2 (human) = UBR2 (human) (UniProt Q8IWV8); assay: Flag co-IP, MudPIT MS, MG132
gp78 (human) = gp78 (human) (UniProt Q9UKV5); assay: Flag co-IP, MudPIT MS, MG132
Elongin C (human) [7] = molecular target: Elongin C (human) (UniProt Q15369); assay: Flag co-IP, MudPIT MS, DMSO
[8] = molecular target: Galectin-3 binding protein. LG3BP (human) (UniProt Q08380); assay: Flag co-IP, MudPIT MS, DMSO
[9] = molecular target: WD repeat protein Anti homolog. WDR68 (human) (UniProt P61962); assay: Flag co-IP, MudPIT MS, DMSO
Elongin C (human) [10] = molecular target: Elongin C (human) (UniProt Q15369); assay: Flag co-IP, MudPIT MS, MG132
endogenous UFD1 (human) = molecular target: T1, endogenous UFD1 (human) (UniProt Q92890); assay: Flag co-IP, 293 cells, MudPIT MS
T1 sequence (looked up): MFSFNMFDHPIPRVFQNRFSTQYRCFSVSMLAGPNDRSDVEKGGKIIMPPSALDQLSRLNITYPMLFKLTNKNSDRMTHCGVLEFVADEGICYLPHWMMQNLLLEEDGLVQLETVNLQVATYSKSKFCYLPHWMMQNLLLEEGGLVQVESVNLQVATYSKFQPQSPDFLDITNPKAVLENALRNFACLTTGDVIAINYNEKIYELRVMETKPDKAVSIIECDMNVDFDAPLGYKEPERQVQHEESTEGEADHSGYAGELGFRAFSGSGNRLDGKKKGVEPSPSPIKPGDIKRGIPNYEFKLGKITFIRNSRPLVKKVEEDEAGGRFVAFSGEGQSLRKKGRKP

[11] = molecular target: Bromodomain and WD-repeat domain-containing protein 1. WDR9 (human) (UniProt Q9NSI6); assay: Flag co-IP, MudPIT MS, DMSO
[12] = molecular target: Bromodomain and WD-repeat domain-containing protein 2, WDR 1 I (human) (UniProt Q9BZH6); assay: Flag co-IP, MudPIT MS, DMSO
[13] = molecular target: Bromodomain and WD-repeat domain-containing protein 3, BRWD3 (human) (UniProt Q6RI45); assay: Flag co-IP, MudPIT MS, DMSO
Cullin 4A (human) = Cullin 4A (human) (UniProt Q13619); assay: Flag co-IP, MudPIT MS, DMSO
Cullin 4B (human) = Cullin 4B (human) (UniProt Q13620); assay: Flag co-IP, MudPIT MS, DMSO
Elongin B (human) = Elongin B (human) (UniProt Q15370); assay: Flag co-IP, MudPIT MS, DMSO
[14] = molecular target: Kelch domain-containing protein 2, KLDC2 (human) (UniProt Q9Y2U9); assay: Flag co-IP, MudPIT MS, DMSO
SKP1 (human) = SKP1 (human) (UniProt P63208); assay: Flag co-IP, MudPIT MS, DMSO
[15] = molecular target: Bromodomain and WD-repeat domain-containing protein 2, WDR 1 I (human) (UniProt Q9BZH6); assay: Flag co-IP, MudPIT MS, MG132
[16] = molecular target: CUL3-interacting protein I. KLHL12 (human) (UniProt Q53G59); assay: Flag co-IP, MudPIT MS, MG132
Cullin 3 (human) = Cullin 3 (human) (UniProt Q13618); assay: Flag co-IP, MudPIT MS, MG132

Chain of Bromodomain and WD-repeat domain-containing protein 2, WDR 1 I (human) (Q9BZH6 whole entry, the tested form may be a part): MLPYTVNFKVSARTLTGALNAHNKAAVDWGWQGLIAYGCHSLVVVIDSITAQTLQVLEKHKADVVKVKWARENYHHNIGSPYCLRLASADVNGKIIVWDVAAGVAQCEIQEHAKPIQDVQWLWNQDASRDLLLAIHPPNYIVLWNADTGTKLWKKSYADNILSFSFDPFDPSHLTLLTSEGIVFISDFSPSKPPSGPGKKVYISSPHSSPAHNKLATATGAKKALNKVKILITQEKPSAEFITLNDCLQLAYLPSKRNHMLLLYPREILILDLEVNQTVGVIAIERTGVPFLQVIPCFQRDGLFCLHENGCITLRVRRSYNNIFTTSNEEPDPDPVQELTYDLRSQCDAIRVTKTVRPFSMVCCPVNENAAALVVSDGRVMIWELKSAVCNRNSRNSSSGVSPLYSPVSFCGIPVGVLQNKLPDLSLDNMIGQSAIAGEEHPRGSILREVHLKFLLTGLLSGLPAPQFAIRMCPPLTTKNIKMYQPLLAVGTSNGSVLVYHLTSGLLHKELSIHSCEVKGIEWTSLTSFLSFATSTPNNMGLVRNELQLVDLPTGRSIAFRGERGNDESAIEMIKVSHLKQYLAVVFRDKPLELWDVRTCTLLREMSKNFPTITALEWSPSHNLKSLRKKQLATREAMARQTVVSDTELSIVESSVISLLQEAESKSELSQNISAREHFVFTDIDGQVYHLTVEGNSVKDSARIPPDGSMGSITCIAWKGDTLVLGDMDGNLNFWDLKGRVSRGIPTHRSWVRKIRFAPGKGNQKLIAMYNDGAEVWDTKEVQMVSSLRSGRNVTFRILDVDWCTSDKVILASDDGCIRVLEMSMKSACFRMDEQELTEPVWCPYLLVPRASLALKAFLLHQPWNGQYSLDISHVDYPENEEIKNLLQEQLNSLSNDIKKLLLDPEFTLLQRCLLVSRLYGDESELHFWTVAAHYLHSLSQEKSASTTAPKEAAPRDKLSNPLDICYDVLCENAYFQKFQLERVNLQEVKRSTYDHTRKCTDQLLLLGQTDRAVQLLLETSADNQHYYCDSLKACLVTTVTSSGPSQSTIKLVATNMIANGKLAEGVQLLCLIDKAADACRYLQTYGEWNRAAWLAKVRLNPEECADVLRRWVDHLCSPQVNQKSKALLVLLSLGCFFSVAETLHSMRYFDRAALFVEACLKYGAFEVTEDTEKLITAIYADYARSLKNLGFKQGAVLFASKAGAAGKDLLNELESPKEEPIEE
Chain of Bromodomain and WD-repeat domain-containing protein 3, BRWD3 (human) (Q6RI45 whole entry, the tested form may be a part): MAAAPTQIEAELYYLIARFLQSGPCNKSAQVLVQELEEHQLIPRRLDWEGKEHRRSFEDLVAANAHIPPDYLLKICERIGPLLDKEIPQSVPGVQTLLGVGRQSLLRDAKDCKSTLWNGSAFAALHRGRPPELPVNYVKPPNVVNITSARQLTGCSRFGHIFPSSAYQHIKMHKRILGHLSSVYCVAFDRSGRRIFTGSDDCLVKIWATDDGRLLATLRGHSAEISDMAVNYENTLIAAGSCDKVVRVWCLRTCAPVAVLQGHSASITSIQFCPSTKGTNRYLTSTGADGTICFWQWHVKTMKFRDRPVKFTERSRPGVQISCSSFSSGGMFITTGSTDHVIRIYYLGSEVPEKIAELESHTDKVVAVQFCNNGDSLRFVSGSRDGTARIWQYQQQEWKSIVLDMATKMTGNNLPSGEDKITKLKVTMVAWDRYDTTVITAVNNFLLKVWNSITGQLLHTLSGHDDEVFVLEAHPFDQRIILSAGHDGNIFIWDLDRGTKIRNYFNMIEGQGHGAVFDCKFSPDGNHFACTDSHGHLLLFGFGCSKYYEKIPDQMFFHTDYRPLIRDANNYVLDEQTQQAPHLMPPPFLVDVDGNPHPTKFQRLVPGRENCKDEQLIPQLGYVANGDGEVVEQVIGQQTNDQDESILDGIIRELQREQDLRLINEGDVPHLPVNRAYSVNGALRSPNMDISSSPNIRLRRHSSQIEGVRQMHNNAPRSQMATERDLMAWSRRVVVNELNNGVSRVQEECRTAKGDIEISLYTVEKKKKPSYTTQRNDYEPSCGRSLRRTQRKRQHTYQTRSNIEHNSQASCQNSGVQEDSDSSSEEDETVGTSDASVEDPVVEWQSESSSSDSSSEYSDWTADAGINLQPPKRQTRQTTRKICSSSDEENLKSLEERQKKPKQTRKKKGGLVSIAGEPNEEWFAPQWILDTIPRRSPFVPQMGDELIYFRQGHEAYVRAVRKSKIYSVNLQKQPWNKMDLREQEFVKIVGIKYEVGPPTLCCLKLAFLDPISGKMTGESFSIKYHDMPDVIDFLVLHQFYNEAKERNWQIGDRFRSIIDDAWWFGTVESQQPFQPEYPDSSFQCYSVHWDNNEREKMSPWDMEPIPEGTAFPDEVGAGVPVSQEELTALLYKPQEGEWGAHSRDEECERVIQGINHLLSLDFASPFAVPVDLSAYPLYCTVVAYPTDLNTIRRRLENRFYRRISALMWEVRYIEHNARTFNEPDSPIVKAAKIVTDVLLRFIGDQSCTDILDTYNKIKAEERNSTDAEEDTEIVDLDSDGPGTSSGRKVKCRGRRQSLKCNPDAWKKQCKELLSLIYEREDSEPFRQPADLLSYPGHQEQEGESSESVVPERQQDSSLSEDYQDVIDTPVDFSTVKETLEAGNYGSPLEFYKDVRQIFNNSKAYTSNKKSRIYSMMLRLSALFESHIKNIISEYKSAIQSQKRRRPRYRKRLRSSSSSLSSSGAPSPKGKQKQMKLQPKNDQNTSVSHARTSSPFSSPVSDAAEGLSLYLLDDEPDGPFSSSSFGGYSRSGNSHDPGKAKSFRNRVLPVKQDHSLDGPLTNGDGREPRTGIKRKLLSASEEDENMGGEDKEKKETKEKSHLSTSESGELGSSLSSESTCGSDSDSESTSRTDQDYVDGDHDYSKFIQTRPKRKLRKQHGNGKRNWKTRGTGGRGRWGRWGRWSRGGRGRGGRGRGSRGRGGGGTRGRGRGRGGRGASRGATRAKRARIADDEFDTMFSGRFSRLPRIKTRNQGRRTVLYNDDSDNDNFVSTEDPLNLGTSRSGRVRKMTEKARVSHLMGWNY
Chain of Cullin 1 (human) (Q13616 whole entry, the tested form may be a part): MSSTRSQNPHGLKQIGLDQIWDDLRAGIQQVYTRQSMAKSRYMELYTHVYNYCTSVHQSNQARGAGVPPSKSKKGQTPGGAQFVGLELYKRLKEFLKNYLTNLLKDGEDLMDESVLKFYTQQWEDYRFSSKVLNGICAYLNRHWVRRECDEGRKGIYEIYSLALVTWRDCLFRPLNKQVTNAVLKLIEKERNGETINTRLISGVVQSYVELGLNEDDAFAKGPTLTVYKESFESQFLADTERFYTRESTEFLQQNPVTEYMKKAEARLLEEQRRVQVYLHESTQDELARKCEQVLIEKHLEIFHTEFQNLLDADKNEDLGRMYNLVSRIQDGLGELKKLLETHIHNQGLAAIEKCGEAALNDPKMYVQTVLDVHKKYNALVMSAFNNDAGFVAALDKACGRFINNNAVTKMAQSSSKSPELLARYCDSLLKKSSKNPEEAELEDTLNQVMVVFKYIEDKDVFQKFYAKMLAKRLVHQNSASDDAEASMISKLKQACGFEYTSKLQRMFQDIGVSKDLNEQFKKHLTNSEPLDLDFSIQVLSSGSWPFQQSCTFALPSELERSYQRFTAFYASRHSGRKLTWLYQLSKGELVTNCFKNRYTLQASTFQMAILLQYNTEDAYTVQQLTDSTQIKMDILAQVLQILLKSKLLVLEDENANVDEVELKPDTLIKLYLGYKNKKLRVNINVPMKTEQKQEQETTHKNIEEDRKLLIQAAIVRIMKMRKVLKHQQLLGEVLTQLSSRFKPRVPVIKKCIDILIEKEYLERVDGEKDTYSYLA
Chain of Elongin B (human) (Q15370 other isoform, or with tags, fused parts or gaps limits assumed): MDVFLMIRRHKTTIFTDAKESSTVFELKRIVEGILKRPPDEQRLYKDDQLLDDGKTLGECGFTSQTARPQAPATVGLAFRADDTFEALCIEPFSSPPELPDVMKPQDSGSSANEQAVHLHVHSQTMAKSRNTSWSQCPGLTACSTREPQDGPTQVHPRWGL
Chain of gp78 (human) (Q9UKV5 whole entry): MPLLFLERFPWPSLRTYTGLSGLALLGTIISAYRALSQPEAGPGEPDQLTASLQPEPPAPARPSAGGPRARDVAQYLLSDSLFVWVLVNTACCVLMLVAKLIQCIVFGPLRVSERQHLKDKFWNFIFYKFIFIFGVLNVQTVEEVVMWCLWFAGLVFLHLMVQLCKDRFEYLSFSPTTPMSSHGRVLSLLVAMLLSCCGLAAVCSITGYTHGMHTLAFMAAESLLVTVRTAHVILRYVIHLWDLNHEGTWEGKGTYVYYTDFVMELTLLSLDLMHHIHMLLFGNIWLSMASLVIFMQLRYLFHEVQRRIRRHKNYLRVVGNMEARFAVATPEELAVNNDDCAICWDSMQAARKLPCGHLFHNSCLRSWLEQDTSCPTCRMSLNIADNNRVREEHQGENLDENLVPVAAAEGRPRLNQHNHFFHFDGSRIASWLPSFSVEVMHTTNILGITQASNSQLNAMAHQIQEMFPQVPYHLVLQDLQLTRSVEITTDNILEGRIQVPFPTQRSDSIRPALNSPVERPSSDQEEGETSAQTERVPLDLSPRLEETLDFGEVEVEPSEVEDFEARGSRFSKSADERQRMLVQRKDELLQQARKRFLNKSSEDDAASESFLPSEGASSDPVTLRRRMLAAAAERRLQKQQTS
Chain of Elongin C (human) (Q15369 whole entry): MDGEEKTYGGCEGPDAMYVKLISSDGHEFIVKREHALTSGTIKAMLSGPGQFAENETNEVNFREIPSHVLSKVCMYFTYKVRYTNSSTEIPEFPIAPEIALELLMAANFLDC
Chain of WD repeat protein Anti homolog. WDR68 (human) (P61962 whole entry): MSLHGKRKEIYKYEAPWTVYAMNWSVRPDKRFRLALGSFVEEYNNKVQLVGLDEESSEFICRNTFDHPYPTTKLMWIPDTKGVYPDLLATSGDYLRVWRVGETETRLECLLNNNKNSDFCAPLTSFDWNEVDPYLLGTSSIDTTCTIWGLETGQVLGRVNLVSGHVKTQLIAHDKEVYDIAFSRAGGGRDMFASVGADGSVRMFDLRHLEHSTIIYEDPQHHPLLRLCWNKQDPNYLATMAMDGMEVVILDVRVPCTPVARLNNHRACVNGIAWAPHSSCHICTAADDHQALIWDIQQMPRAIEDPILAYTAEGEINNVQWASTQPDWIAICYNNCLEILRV

abundance factor (AF) [1]: 2.9 | sequence count [1]: 2 | spectrum count [1]: 2 | abundance factor (AF) (Cullin 1 (human)): 6.5 | sequence count (Cullin 1 (human)): 5 | spectrum count (Cullin 1 (human)): 7 | abundance factor (AF) [2]: 2.1 | sequence count [2]: 2 | spectrum count [2]: 2 | abundance factor (AF) [3]: 3.5 | sequence count [3]: 2 | spectrum count [3]: 3 | abundance factor (AF) [4]: 1.1 | sequence count [4]: 2 | spectrum count [4]: 2 | abundance factor (AF) [5]: 0.6 | sequence count [5]: 4 | spectrum count [5]: 7 | abundance factor (AF) [6]: 2.2 | sequence count [6]: 4 | spectrum count [6]: 5 | abundance factor (AF) (Praja 2 (human)): 1.1 | sequence count (Praja 2 (human)): 2 | spectrum count (Praja 2 (human)): 2 | abundance factor (AF) (UBR2 (human)): 1.3 | sequence count (UBR2 (human)): 3 | spectrum count (UBR2 (human)): 6 | abundance factor (AF) (gp78 (human)): 3.6 | sequence count (gp78 (human)): 3 | spectrum count (gp78 (human)): 6
Substance: Flag-SAKS1 (from UniProt Q04323 1-297)

abundance factor (AF) (Elongin C (human) [7]): 7 | sequence count (Elongin C (human) [7]): 2 | spectrum count (Elongin C (human) [7]): 5 | abundance factor (AF) [8]: 0.8 | spectrum count [8]: 3 | abundance factor (AF) [9]: 0.9 | sequence count [9]: 2 | spectrum count [9]: 2 | abundance factor (AF) [5]: 0.3 | sequence count [5]: 6 | spectrum count [5]: 6 | abundance factor (AF) [6]: 0.5 | sequence count [6]: 2 | spectrum count [6]: 2 | abundance factor (AF) (Elongin C (human) [10]): 5.7 | sequence count (Elongin C (human) [10]): 2 | spectrum count (Elongin C (human) [10]): 3 | abundance factor (AF) (UBR2 (human)): 0.2 | sequence count (UBR2 (human)): 2 | spectrum count (UBR2 (human)): 2 | abundance factor (AF) (gp78 (human)): 1.9 | sequence count (gp78 (human)): 4 | spectrum count (gp78 (human)): 6 | sequence count (endogenous UFD1 (human)): 7 | sequence coverage (endogenous UFD1 (human)): 29.4% | spectrum count (endogenous UFD1 (human)): 82
Substance: Flag-UBXD8 (from UniProt Q96CS3 1-445)

abundance factor (AF) [11]: 2.2 | sequence count [11]: 3 | spectrum count [11]: 4 | abundance factor (AF) [12]: 2.1 | sequence count [12]: 2 | spectrum count [12]: 2 | abundance factor (AF) [13]: 1.4 | sequence count [13]: 2 | spectrum count [13]: 2 | abundance factor (AF) (Cullin 4A (human)): 9.8 | sequence count (Cullin 4A (human)): 5 | spectrum count (Cullin 4A (human)): 6 | sequence count (Cullin 4B (human)): 7 | spectrum count (Cullin 4B (human)): 9 | abundance factor (AF) (Elongin B (human)): 16 | sequence count (Elongin B (human)): 2 | spectrum count (Elongin B (human)): 2 | abundance factor (AF) [14]: 9.3 | sequence count [14]: 2 | spectrum count [14]: 3 | abundance factor (AF) (SKP1 (human)): 30.7 | sequence count (SKP1 (human)): 3 | spectrum count (SKP1 (human)): 4 | abundance factor (AF) [15]: 1.3 | sequence count [15]: 5 | spectrum count [15]: 7 | abundance factor (AF) [16]: 1.2 | sequence count [16]: 3 | spectrum count [16]: 3 | abundance factor (AF) (Cullin 3 (human)): 8.4 | sequence count (Cullin 3 (human)): 16 | spectrum count (Cullin 3 (human)): 30 | abundance factor (AF) (Elongin C (human) [10]): 20 | sequence count (Elongin C (human) [10]): 8 | spectrum count (Elongin C (human) [10]): 10
Substance: Flag-UBXD7 (from UniProt O94888 1-489)
